This passage reports SPR response in the specificity test and change in Resonance Unit results from article PMC9776105.

This assay concerns the target single chain variable fragment (scFv) from the CR3022 antibody with a cysteine-containing linker. As to the kind of experiment: SPR.

Regarding “Spike Receptor Binding Domain SARS-CoV-2 (from UniProt P0DTC2) (domain or fragment)”, the SPR response in the specificity test was 4.22 ru, the change in Resonance Unit at 50 ng/mL RBD is 1.13 RU, the change in Resonance Unit at 100 ng/mL RBD was 3.01 RU and the change in Resonance Unit at 150 ng/mL RBD amounted to 3.74 RU. The substance also gave a change in Resonance Unit at 200 ng/mL RBD of 3.98 RU.
